From PMC9937922

Target: proliferating cell nuclear antigen (PCNA) (human (endogenous in HAP1)) (UniProt P12004)
Assay: co-IP; Dynabeads Protein A cross-linked (BS3) with α-PCNA (PC10) or α-ENO1 (ab227978); 2 mg HAP1 cytosolic cell extract, 4 °C overnight; washes with 600 mM NaCl; western blot; both directions

Chain of UniProt P12004 (P12004 whole entry): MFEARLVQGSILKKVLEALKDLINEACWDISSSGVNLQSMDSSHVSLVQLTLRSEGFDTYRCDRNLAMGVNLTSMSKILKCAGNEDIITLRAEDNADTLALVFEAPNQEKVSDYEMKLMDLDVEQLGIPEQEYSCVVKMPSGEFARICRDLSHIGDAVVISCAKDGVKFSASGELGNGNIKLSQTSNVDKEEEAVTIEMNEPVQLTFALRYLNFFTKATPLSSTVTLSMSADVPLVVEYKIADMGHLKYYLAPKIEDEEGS

percent reduction of the interaction against WT ENO1: 80 to 90%
Substance: ENO1 F423A (from UniProt P06733 1-434) (enzyme)
